{"source": "paper PMC8359929", "substrate": "N[C@@H](C(=O)O)[C@@H](O)[C@H](O)[C@H](O)COP(=O)(O)O", "test": "purified protein", "assay_type": "biochemical, Salmonella enterica", "conditions": "0.1 M triethanolamine-HCl pH 8.0, 37 °C, 0.2 mM NADH"}
{"protein": "D-glucosaminate-6-phosphate ammonia-lyase (DGL), native (Salmonella enterica subsp. enterica serovar Typhimurium str. 14028S) (protein) MTPNIYQQLGLKKVINACGKMTILGVSSVAPEVMQATARAASAFVEIDALVEKTGELVSRYTGAEDSYITSCASAGIAIAVAAAITHGDRARVALMPDSSGMANEVVMLRGHNVDYGAPVTSAIRLGGGRIVEVGSSNLATRWQLESAINEKTAALLYVKSHHCVQKGMLSIDDFVQVAQANHLPLIVDAAAEEDLRGWVASGADMVIYSGAKAFNAPTSGFITGRKTWIAACKAQHQGIARAMKIGKENMVGLVYALENYHQGQTTVTAAQLQPVAEAISAIHGLYADIEQDEAGRAIWRIRVRVNASELGLNAQDVEAQLRGGEIAIYARKYQLHQGVFSLDPRTVAEGEMALIVARLREIAEHAAD", "values": [{"measurement": "Km", "value": "139 ± 26", "unit": "µM"}, {"measurement": "kcat", "value": "27.4 ± 1.4", "unit": "s⁻¹"}, {"measurement": "kcat/Km", "value": "197000 ± 31000", "unit": "M⁻¹ s⁻¹"}]}
